What follows are binders tested against T1, human GALR2 (Galanin Receptor 2) (human, UniProt O43603 1-387) (assay: cell-based or functional assay).
T1 sequence: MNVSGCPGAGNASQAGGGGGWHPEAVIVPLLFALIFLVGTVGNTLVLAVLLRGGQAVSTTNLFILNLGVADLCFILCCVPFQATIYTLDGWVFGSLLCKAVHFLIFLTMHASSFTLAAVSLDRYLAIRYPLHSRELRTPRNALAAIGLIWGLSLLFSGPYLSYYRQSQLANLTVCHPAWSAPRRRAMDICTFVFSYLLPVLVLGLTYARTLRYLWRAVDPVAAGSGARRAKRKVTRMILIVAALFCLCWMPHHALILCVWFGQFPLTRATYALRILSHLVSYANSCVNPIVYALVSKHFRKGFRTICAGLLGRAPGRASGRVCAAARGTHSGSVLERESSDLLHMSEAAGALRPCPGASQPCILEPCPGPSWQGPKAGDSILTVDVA

Row | Binder | Aequorin EC50 | FLIPR EC50
1 | NWTPQAMLYLK [NWTPQAMLYLK (SEQ ID NO: 20)] | – | 1.9 nM
2 | NWTPQAMLYLKGA [NWTPQAMLYLKGA (SEQ ID NO: 18)] | – | 4.3 nM
3 | NWTPQAMLYLKGAPG [NWTPQAMLYLKGAPG (SEQ ID NO: 40)] | – | 0.2 nM
4 | NWPPQAMLYLKGAQG [NWPPQAMLYLKGAQG (SEQ ID NO: 34)] | – | 0.05 nM
5 | NWTPQAMLYLKGAQA [NWTPQAMLYLKGAQA (SEQ ID NO: 32)] | – | 2 nM
6 | NWTPQAALYLKGAQG [NWTPQAALYLKGAQG (SEQ ID NO: 27)] | – | 3.4 nM
7 | NWTPQAMLYLKGAAG [NWTPQAMLYLKGAAG (SEQ ID NO: 31)] | – | 0.1 nM
8 | NWTPQAMAYLKGAQG [NWTPQAMAYLKGAQG (SEQ ID NO: 28)] | – | 0.8 nM
9 | NWTPPAMLYLKGAQG [NWTPPAMLYLKGAQG (SEQ ID NO: 35)] | – | 97 nM
10 | NWTAQAMLYLKGAQG [NWTAQAMLYLKGAQG (SEQ ID NO: 25)] | – | 3.6 nM
11 | NWTPAAMLYLKGAQG [NWTPAAMLYLKGAQG (SEQ ID NO: 26)] | – | 12.5 nM
12 | NWAPQAMLYLKGAQG [NWAPQAMLYLKGAQG (SEQ ID NO: 24)] | – | 10.9 nM
13 | AWTPQAMLYLKGAQG [AWTPQAMLYLKGAQG (SEQ ID NO: 23)] | – | 0.7 nM
14 | NWTPQAMLYLKG [NWTPQAMLYLKG (SEQ ID NO: 19)] | – | 6.7 nM
15 | NWTPQAMLYLKAAQG [NWTPQAMLYLKAAQG (SEQ ID NO: 30)] | – | 47 nM
16 | NWTPQAMLYLAGAQG [NWTPQAMLYLAGAQG (SEQ ID NO: 29)] | – | 9.6 nM
17 | NWTPQAMLYL [NWTPQAMLYL (SEQ ID NO: 21)] | – | 14 nM

Results, then the binder that gave them:

Row | Aequorin EC50 | FLIPR EC50 | Binder
18 | 17.6 nM | – | NWTPQAMLYLKGAQGRRFISDQS [human pro Neuropeptide Q (36-58) (SEQ ID NO: 16)]
19 | > 10000 nM | – | SPNPQLLTIPEAATILLASLQKSPEDEEKNFDQTRFLEDSLLNW [human pro Neuropeptide Q (73-116) (SEQ ID NO: 17)]
20 | 5.06 nM | – | NWTPQAMLYLKGAQGH [rat Neuropeptide Q (SEQ ID NO: 15)]
21 | – | 0.3 nM | NWTPQAMLYLKGPQG [NWTPQAMLYLKGPQG (SEQ ID NO: 39)]
22 | – | 296 nM | NWTPQAMLYLPGAQG [NWTPQAMLYLPGAQG (SEQ ID NO: 37)]
23 | – | 55 nM | NWTPQPMLYLKGAQG [NWTPQPMLYLKGAQG (SEQ ID NO: 36)]
24 | – | 0.1 nM | PWTPQAMLYLKGAQG [PWTPQAMLYLKGAQG (SEQ ID NO: 33)]
25 | – | 0.3 nM | NWTPQAMLYLKGAQP [NWTPQAMLYLKGAQP (SEQ ID NO: 41)]
26 | – | 20 nM | NWTPQAMLYLKPAQG [NWTPQAMLYLKPAQG (SEQ ID NO: 38)]
27 | 5.7 nM | 4.2 nM | NWTPQAMLYLKGAQG [human Neuropeptide Q-Glycine (SEQ ID NO: 14)]
28 | – | 4.8 nM | WTPQAMLYLKGAQG [WTPQAMLYLKGAQG (SEQ ID NO: 22)]
